Experimental data as given in US20020142982.

Tests used:
[1] = biological target: R231K EDG-1 mutant receptor (UniProt P21453)
[2] = system: GST-i3 polypeptide from EDG-5 [GST: P08515]
[3] = biological target: T236A EDG-1 mutant receptor (UniProt P21453)
[4] = biological target: Flag-tagged wild-type EDG-1 receptor (UniProt P21453)
[5] = biological target: GST-i3 polypeptide from EDG-3 (UniProt Q99500)
[6] = biological target: glutathione S-transferase (GST)-EDG-1-i3 (UniProt P21453)
GST-i3T236V polypeptide = GST-i3T236V polypeptide (UniProt P21453)
[7] = biological target: R233K EDG-1 mutant receptor (UniProt P21453)
R233K EDG-1 mutant receptor, sequence (P21453 whole entry R233K): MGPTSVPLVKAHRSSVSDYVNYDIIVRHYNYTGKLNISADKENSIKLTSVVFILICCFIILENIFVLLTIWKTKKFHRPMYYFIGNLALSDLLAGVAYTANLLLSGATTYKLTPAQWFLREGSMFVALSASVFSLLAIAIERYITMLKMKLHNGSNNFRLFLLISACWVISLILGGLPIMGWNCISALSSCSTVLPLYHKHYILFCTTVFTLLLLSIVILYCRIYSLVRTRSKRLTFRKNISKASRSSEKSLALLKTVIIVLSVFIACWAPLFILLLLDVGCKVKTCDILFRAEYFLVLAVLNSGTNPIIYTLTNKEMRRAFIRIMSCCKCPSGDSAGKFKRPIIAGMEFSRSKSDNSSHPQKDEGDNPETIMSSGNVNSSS

R231K EDG-1 mutant receptor, sequence (P21453 whole entry R231K): as the sequence (P21453 whole entry R233K) above, with R231K, K233R counted along it
Flag-tagged wild-type EDG-1 receptor, sequence (P21453 whole entry): as the sequence (P21453 whole entry R233K) above, with K233R counted along it
T236A EDG-1 mutant receptor, sequence (P21453 whole entry T236A): as the sequence (P21453 whole entry R233K) above, with K233R, T236A counted along it
GST-i3 polypeptide from EDG-3, sequence (Q99500 217-243): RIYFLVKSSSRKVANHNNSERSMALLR
glutathione S-transferase (GST)-EDG-1-i3, sequence (P21453 other isoform, or with tags, fused parts or gaps): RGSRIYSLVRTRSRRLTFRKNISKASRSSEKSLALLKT
GST-i3T236V polypeptide, sequence (P21453 whole entry T236V, looked up, tested part not stated): as the sequence (P21453 whole entry R233K) above, with K233R, T236V counted along it
GST-i3 polypeptide from EDG-5 [GST: P08515], sequence (P08515 whole entry, looked up): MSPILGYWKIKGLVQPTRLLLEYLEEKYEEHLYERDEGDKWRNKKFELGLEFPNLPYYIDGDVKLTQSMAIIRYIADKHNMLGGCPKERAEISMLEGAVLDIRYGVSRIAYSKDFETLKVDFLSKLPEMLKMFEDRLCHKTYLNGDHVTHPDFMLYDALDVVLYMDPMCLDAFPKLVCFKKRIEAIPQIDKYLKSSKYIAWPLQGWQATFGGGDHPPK

Row | Substance | in vitro phosphorylation of immunoprecipitated receptor [1] | in vitro phosphorylation (32P incorporation, SDS-PAGE) [2] | in vitro phosphorylation of immunoprecipitated receptor [3] | in vitro phosphorylation of immunoprecipitated receptor [4] | in vitro phosphorylation (32P incorporation, SDS-PAGE) [5] | in vitro phosphorylation (32P incorporation, SDS-PAGE) [6] | in vitro phosphorylation (32P-phosphate incorporation) (GST-i3T236V polypeptide) | in vitro phosphorylation of immunoprecipitated receptor [7]
1 | recombinant, active Akt | All three mutants were phosphorylated very poorly by the active Akt kinase in an in vitro phosphorylation reaction when compared to the wild-type EDG-1 | only the GST-EDG-1-i3 was phosphorylated by Akt | All three mutants were phosphorylated very poorly by the active Akt kinase in an in vitro phosphorylation reaction when compared to the wild-type EDG-1 | All three mutants were phosphorylated very poorly by the active Akt kinase in an in vitro phosphorylation reaction when compared to the wild-type EDG-1 | only the GST-EDG-1-i3 was phosphorylated by Akt | only the GST-EDG-1-i3 was phosphorylated by Akt | ^32P-phosphate incorporation into the GST-i3T236V polypeptide was significantly reduced upon incubation with Akt | All three mutants were phosphorylated very poorly by the active Akt kinase in an in vitro phosphorylation reaction when compared to the wild-type EDG-1
2 | p90^RSK (active kinase) | in vitro phosphorylation with p90^RSK was similar in wild-type as well as in the three mutants |  | in vitro phosphorylation with p90^RSK was similar in wild-type as well as in the three mutants | in vitro phosphorylation with p90^RSK was similar in wild-type as well as in the three mutants |  |  |  | in vitro phosphorylation with p90^RSK was similar in wild-type as well as in the three mutants
